Measured values as given in paper PMC7718890.

Molecular target: CarD WT;MTB RNAP (WT) (Mycobacterium …, UniProt P9WJG3;P9WGZ1;P9WGY9;P9WGY7;P9WGY5 1-162;1-347;1-1178;1-1316;1-110, |)
Experiment: competition (fluorescence polarization)
Conditions: protein: recombinant;recombinant; tags: ;; copies: 1;2;1;1;1; blunt

B1: rrnAP3 native 61 bp (dsDNA)
DNA 1: GATGACCGAACCTGGTCTTGACTCCATTGCCGGATTTGTATTAGACTGGCAGGGTTGCCCC
DNA 2: GGGGCAACCCTGCCAGTCTAATACAAATCCGGCAATGGAGTCAAGACCAGGTTCGGTCATC
- Ki: 8 ± 1 nM
